The results in this text go back to the supplement of paper PMC6379048.

pEC50: −log10 of the molar value.

Common to all, as to experiment: EC50 of free RNA motif oligo competing protein binding to immobilised probe
One data set has as its target T1, TFIP11 (UniProt Q9UBB9).
T1 sequence: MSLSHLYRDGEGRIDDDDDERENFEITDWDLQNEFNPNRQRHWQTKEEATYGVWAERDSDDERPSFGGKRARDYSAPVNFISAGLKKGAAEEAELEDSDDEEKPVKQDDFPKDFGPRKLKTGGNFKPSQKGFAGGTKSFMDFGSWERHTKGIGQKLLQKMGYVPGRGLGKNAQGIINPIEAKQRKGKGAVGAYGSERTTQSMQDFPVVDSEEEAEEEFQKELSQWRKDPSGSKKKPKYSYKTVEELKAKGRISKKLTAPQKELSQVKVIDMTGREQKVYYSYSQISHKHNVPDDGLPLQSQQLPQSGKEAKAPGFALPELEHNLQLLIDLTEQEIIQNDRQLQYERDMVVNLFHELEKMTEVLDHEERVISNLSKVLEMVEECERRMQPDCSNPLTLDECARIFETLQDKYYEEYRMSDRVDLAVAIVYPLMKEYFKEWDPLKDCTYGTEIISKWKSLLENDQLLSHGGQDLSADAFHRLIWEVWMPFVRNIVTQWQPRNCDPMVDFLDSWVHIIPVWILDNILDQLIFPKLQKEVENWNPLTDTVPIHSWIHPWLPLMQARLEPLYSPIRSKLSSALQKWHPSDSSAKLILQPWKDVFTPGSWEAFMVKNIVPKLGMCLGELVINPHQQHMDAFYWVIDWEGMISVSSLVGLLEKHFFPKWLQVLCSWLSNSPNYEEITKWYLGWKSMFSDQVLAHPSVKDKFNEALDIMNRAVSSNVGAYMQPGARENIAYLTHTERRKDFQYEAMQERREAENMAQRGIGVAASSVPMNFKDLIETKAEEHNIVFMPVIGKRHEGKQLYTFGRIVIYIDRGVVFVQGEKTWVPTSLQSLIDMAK
In short, it runs like this: (§1)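 Kd was calculated as EC50, taken from a four-parameter log-logistic fit, multiplied by a protein-dependent depletion factor. The assay used HEK293-FT lysate (2.5 mg protein/well) pre-incubated for 1 h at 4°C with free RNA oligos (0 nM to 30 μM), then incubated for 30 min at 4°C with the matching oligos bound through a 5′-amino-C6 linker to NHS-Sepharose beads. Bound proteins were measured by label-free LC-MS/MS and normalised to the control.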

Another data set addresses T2, FUBP3 (UniProt Q96I24).
T2 sequence: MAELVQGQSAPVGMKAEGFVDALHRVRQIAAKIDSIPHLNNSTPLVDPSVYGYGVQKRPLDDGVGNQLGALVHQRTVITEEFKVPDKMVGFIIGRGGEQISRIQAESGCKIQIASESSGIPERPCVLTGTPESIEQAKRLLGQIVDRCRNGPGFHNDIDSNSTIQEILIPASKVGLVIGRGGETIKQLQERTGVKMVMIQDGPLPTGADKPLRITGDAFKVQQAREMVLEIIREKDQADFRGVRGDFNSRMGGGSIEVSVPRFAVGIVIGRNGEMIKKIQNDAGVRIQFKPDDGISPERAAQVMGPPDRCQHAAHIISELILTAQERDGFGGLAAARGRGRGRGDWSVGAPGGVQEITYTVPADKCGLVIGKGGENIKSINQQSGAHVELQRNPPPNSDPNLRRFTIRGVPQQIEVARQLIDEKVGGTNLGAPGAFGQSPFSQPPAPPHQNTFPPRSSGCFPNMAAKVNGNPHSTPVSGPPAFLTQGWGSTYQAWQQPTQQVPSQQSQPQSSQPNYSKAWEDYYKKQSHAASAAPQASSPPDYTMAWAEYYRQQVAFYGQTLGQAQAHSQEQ
In short, it runs like this: as §1

The target in the next data set is T3, PATL1 (UniProt Q86TB9).
T3 sequence: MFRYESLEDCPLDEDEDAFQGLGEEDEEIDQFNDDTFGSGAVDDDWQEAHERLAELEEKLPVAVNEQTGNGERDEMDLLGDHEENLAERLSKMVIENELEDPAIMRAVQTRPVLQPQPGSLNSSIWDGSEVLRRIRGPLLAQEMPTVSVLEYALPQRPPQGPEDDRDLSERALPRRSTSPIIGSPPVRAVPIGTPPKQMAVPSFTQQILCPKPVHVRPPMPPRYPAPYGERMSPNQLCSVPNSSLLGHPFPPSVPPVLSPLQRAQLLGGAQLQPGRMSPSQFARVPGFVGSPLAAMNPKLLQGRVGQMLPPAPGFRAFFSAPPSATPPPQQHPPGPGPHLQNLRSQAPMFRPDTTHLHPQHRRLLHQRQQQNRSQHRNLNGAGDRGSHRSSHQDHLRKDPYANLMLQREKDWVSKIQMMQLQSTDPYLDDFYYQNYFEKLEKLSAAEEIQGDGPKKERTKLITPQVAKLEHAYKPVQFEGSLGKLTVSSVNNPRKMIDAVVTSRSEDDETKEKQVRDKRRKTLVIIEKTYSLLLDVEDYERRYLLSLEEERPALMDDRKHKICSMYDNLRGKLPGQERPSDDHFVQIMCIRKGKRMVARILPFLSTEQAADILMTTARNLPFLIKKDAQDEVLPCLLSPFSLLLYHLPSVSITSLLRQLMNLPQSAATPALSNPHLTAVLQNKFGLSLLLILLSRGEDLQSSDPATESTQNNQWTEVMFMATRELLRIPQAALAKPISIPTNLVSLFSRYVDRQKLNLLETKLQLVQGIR
In short, it runs like this: as §1

Another data set deals with T4, SSB (UniProt P05455).
T4 sequence: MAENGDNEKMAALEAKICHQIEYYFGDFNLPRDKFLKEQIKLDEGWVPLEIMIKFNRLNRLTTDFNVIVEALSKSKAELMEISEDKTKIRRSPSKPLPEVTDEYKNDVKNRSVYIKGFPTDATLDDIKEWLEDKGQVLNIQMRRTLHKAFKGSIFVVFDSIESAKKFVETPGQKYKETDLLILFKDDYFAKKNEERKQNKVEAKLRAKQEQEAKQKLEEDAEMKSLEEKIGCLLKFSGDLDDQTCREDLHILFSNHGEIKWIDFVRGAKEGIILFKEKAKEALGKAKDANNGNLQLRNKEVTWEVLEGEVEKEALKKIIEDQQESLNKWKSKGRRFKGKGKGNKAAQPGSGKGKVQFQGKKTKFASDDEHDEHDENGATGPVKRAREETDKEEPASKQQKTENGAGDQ
The procedure, abridged:
as §1

Regarding AAUAAA, the pEC50 was 5.63 with TFIP11, 5.67 with FUBP3 and 6.33 with PATL1.

Consider CUGUCCU, for which the pEC50 in the data set with SSB was 5.58.

Take UAUUUAU: the pEC50 in the data set with TFIP11 was 5.62; with FUBP3, 6.10; with SSB it was 6.52; in the data set with PATL1 it was 6.39.

What is called pEC50 is the EC50 on a negative log10 scale, so that one unit is a factor of ten. Read a high pEC50 as a small EC50.
